Data reported in paper PMC9399094.
One block for each substance: values may come before it.

Assays:
[1] = target: S.c. nucleosome: recombinant S. cerevisiae histone octamer (H2A K120C, fluorescently labeled) assembled on λ_(ARS1) DNA (S. cerevisiae) (UniProt P04911); assay: single-molecule fluorescence colocalisation (dual-trap optical tweezers with confocal microscopy); nucleosomes sparsely assembled on λ_(ARS1) DNA tethered between streptavidin beads; 2 nM Cy3- or LD650-ORC and 5 nM Cdc6 in solution; 25 mM Tris-OAc pH 7.5, 50 mM potassium glutamate, 10 mM Mg(OAc)2, 2.5 mM ATP; room temperature
[2] = test system: ORC (Orc1-6);Cdc6 (Saccharomyces cerevisiae (overexpressed in strain OY001);Saccharomyces cerevisiae); assay: single-molecule fluorescence, optical tweezers; settings: biotinylated ends, H2A K120C, Single-molecule optical tweezers with confocal fluorescence, ATP present, 2 nM ORC, 5 nM Cdc6, 10 nM MCM, high-salt wash 0.5 M NaCl, buffer, pH and temperature …
[3] = test system: ORC (Orc1-6);MCM (Mcm2-7);Cdc6;Cdt1 (Saccharomyces cerevisiae (overexpressed in strain OY001);Saccharomyces cerevisiae (overexpressed in strain OY001);Saccharomyces cerevisiae;Saccharomyces cerevisiae); assay: single-molecule fluorescence, optical tweezers; settings: 2 nM ORC, Single-molecule optical tweezers with confocal fluorescence, ATP present, 5 nM Cdc6, 10 nM MCM, high-salt wash 0.5 M NaCl, buffer, pH and temperature …
[4] = target: S.c. Mcm2-7 complex with S6- and 3xFlag-tagged Mcm3, fluorescently labeled (S. cerevisiae) (UniProt P29469); assay: single-molecule photobleaching step counting (optical tweezers with confocal microscopy); LD650-MCM on nucleosome-free λ_(ARS1) DNA with unlabeled ORC, Cdc6, Cdt1; oxygen scavenging system omitted; labeling efficiency of MCM ~60%; two hexamers to a double hexamer on DNA

fraction of nucleosomes with a stably bound ORC at 2 nM ORC [1]: > 90%
Substance: S.c. origin recognition complex (Orc1-6) with S6-3xFlag-Orc1, fluorescently labeled (from UniProt P54784 1-914; P32833 1-620; P54790 1-616; P54791 1-529; P50874 1-479; P38826 1-435)

Substance: X.l. nucleosomes on λARS1 DNA (all positions)
binding signal (% of nucleosomes with stably bound ORC) ([2]; Xenopus laevis octamer): > 90

Substance: S.c. nucleosomes on λARS1 DNA (all positions)
binding signal (% of nucleosomes with stably bound ORC) ([2]; S. cerevisiae octamer): > 90

Substance: λARS1 DNA, non-ARS1 positions
binding signal ([3]; 10 nM MCM, 5 nM Cdc6, biotinylated ends, scale: % of stably bound MCM located at non-ARS1 positions): 86
binding signal ([3]; 0.5 M NaCl wash, biotinylated ends, scale: % of MCM loaded): 25

fraction of MCM with two-step photobleaching [4]: 36%
stoichiometry N [4]: 2
Substance: S.c. Mcm2-7 complex with S6- and 3xFlag-tagged Mcm3, fluorescently labeled, P29469 1-868; P24279 1-971; P30665 1-933; P29496 1-775; P53091 1-1017; P38132 1-845

Substance: λARS1 DNA, ARS1 site
binding signal ([3]; 0.5 M NaCl wash, biotinylated ends (biotin-11-dUTP, biotin-14-dCTP fill-in), scale: % of MCM loaded): 62
